Data as given in publication PMC8750359.

B1: NKCC2: N442Q/N452Q (protein)
parent chain: MSVSIPSNSVPSSASRFQVHVINEGHGSAAAVGDSADPPHYEETSFGDEAQNRLRISFRPGNQECYDNFLQTGETAKTDTTFHAYDSHTNTYYLQTFGHNTMDAVPKIEYYRNTGSVSGPKVNRPSLLEIHEQLAKNVTVAPGSADRVANGDGMPGDEQAENKEEDMTGVVKFGWVKGVLVRCMLNIWGVMLFIRLSWIVGEAGIGLGVLIILLSTMVTSITGLSTSAIATNGFVRGGGAYYLISRSLGPEFGGSIGLIFAFANAVAVAMYVVGFAETVVDLLKESDSMMVDPTNDIRIIGSITVVILLGISVAGMEWEAKAQVILLVILLIAIANFFIGTVIPSNNEKKSRGFFNYQASIFAENFGPSFTKGEGFFSVFAIFFPAATGILAGANISGDLEDPQDAIPRGTMLAIFITTVAYIGVAICVAACVVRDATGSMNDTIVSGMNCNGSAACGLGYDFSRCQHEPCQYGLMNNFQVMSMVSGFGPLITAGIFSATLSSALASLVSAPKVFQALCKDNIFKGLQFFAKGYGKNNEPLRGYFLTFVIAMAFILIAELNVIAPIISNFFLASYALINFSCFHASYAKSPGWRPAYGIYNMWVSLFGAILCCAVMFVINWWAAVITYVIELFLYIYVTYKKPDVNWGSSTQALSYVSALDNALELTTVEDHVKNFRPQCIVLTGGPMTRPALLDITHAFTKNSGLCICCEVFVGPRKLCVKEMNSGMAKKQAWLIKNKIKAFYAAVAADCFRDGVRSLLQASGLGRMKPNTLVIGYKKNWRKAPLSELENYVGIIHDAFDFEIGVVIVRISQGFDISPVLQVQDELEKLEQERLALEAAIKDNECEEGKGGIRGLFKKAGKLNITKPAPKKDGNISSIQSMHVGEFNQKLVEASAQFKKKQGKGTIDVWWLFDDGGLTLLIPYILTLRKKWKDCKLRIYVGGKITRIEEEKISMASLLSKFRIKFADIHIIGDINIKPNKESWKVFEEMIEPYRLHESHKDLTTAEKLKRESPWKITDAELEAVKEKSYRQVRLNELLQEHSRAANLIVLSLPVARKGSISDLLYMAWLEILTKNLPPVLLVRGNHKNVLTFYS
B2: NKCC2: kifunensine 25 µM, 6 h (protein)
parent chain: B1 parent chain

Assays:
[1] = immunoblot of total NKCC2 ± ManIA co-expression, HEK cells; conditions: glycan lost; control: WT NKCC2
[2] = immunoblot of NKCC2 ± ManIA co-expression, OKP cells; conditions: glycan changed form; control: untreated cells

Row | Protein | other: ManIA-induced down-regulation of NKCC2 protein [1] | other: ManIA-induced down-regulation of NKCC2 protein [2]
1 | B1 | decreases | –
2 | B2 | – | decreases
